Assay [1] concerns the target T1, potato lectin (Sigma) (potato, UniProt Q9S8M0 23-323).
T1 construct: Bought glycoprotein, coated on ELISA plates
T1 sequence (looked up): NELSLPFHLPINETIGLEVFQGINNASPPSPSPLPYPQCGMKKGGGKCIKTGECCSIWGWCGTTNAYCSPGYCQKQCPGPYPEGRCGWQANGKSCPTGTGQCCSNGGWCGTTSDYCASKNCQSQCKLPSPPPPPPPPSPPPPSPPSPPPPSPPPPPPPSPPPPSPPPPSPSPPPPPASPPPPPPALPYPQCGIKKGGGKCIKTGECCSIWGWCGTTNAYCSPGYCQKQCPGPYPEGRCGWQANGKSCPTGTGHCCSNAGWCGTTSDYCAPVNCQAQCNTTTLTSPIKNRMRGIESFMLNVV
Description: microcapsule retention; G: amine capsules, BS3 one-step, 1 ug VHH/cm2; potato lectin coat 1 ug/ml; 10% coverage.

Assay [2] concerns the target T1, potato lectin (Sigma). Nature of the assay: microcapsule retention; D: carboxyl capsules, EDC/Sulfo-NHS, 0.1 ug VHH/cm2; potato lectin coat 10 ug/ml; 10% coverage.
Assay [3] has as its target T1, potato lectin (Sigma). Description: microcapsule retention; H: amine capsules, BS3 one-step, 0.1 ug VHH/cm2; potato lectin coat 1 ug/ml; 100% coverage.
Assay [4] concerns the target T1, potato lectin (Sigma). Nature of the assay: microcapsule retention; L: amine capsules, BS3 two-step, 0.1 ug VHH/cm2; potato lectin coat 10 ug/ml; 10% coverage.
The target of assay [5] is T1, potato lectin (Sigma). Nature of the assay: microcapsule retention; D: carboxyl capsules, EDC/Sulfo-NHS, 0.1 ug VHH/cm2; potato lectin coat 1 ug/ml; 10% coverage.
Assay [6] concerns the target T1, potato lectin (Sigma). Description: microcapsule retention; K: amine capsules, BS3 two-step, 1 ug VHH/cm2; potato lectin coat 1 ug/ml; 100% coverage.
Assay [7] concerns the target T1, potato lectin (Sigma). Description: microcapsule retention; L: amine capsules, BS3 two-step, 0.1 ug VHH/cm2; potato lectin coat 100 ug/ml; 100% coverage.
Assay [8] addresses T1, potato lectin (Sigma). Nature of the assay: microcapsule retention; C: carboxyl capsules, EDC/Sulfo-NHS, 1 ug VHH/cm2; potato lectin coat 1 ug/ml; 10% coverage.
Assay [9] has as its target T1, potato lectin (Sigma). Description: microcapsule retention; L: amine capsules, BS3 two-step, 0.1 ug VHH/cm2; potato lectin coat 1 ug/ml; 100% coverage.
For assay [10], the target named is T1, potato lectin (Sigma). Description: microcapsule retention; K: amine capsules, BS3 two-step, 1 ug VHH/cm2; potato lectin coat 1 ug/ml; 10% coverage.
Assay [11] concerns the target T1, potato lectin (Sigma). Description: microcapsule retention; D: carboxyl capsules, EDC/Sulfo-NHS, 0.1 ug VHH/cm2; potato lectin coat 100 ug/ml; 10% coverage.
In assay [12] the target is T1, potato lectin (Sigma). Nature of the assay: microcapsule retention; H: amine capsules, BS3 one-step, 0.1 ug VHH/cm2; potato lectin coat 100 ug/ml; 10% coverage.
For assay [13], the system named is intact living potato pot plants. Nature of the assay: VHH binding to intact living plants. Also noted: species or system potato (variety Désirée). As to conditions: leaves attached to potato pot plant submerged in VHH solution in PBS, 1 hour. Here is the method: Binding of VHH to intact living plants was investigated on potato pot plants (variety Désirée). Compound leaves of intact living plants were submersed in solutions of hexahistidine-tagged VHH in PBS, or PBS alone for control conditions, leaving the compound leaves attached to the plants. VHH were allowed to bind for 1 hour. Next, the compound leaves still attached to the plants were washed five times in PBS in Erlenmeyer flasks. Different leaves and petiole sections were sampled. Bound VHH were detected by incubation with monoclonal mouse anti-histidine antibodies directly conjugated with Alexa-488 fluorescent dye (Abd Serotec) in PBS for 1 hour. Unbound anti-histidine antibodies were removed by washing five times with PBS. Whole leaves, leaf discs, or petiole sections were analyzed for bound VHH with microscopy.

The target in assay [14] is unrelated antigens. Nature of the assay: VHH-coupled Uvitex microcapsules retained on wells coated with unrelated antigen; 20% surface coverage.
The target in assay [15] is unrelated antigens. Description: VHH-coupled Uvitex OB microcapsules retained on wells coated with unrelated antigen; 4% surface coverage.
Assay [16] deals with T1, potato lectin (Sigma). Description: ELISA, potato lectin coated at 100 ug/ml, VHH at 3 ug/ml, anti-histidine detection. The protocol: ELISA plates (Maxisorp, Nunc) coated with 100 μl per well 100 μg/ml potato lectin (Sigma) in PBS were coated at 4° C. overnight and coating was continued at room temperature for 1 hour on the next day. Plates were washed three times with PBS/0.05%-TWEEN®-20 and blocked with 5% skimmed milk in PBS for 1 hour. VHH (3 μg/ml) were transferred to the potato lectin-coated plates and VHH antibody fragments were allowed to bind for 1 hour at room temperature. Bound VHH were detected with sequential incubations with monoclonal mouse anti-histidine antibodies (Abd Serotec) and rabbit anti-mouse IgG whole molecule antibodies conjugated with alkaline phosphatase (RaM/AP) (Sigma) in 1% MPBS/0.05%-TWEEN®-20. Unbound antibodies were removed by washing three times with PBS/0.05%-TWEEN®-20 after each antibody incubation. The plates were washed an additional two times with PBS and 100 μl pNPP disodium hexahydrate substrate (Sigma) was added to each well and the absorbance at 405 nm was measured (see Table 2).
In general terms: ELISA stands for enzyme-linked immunosorbent assay.

Assay [17] deals with unrelated antigens. Description: VHH-coupled Uvitex microcapsules retained on wells coated with unrelated antigen; 100% surface coverage.
Assay [18] concerns the target unrelated antigens. Description: VHH-coupled lambda-cyhalothrin microcapsules retained on wells coated with unrelated antigen; 100% surface coverage.

As to Control VHH, the microcapsule counts (microcapsules) in assay [1] turned out to be 7; in [2], 118; in assay [3], 173; in assay [4], 186; in [5], 64; in assay [6], 617. In addition, the microcapsule counts (microcapsules) in [7] came out at 1110; in assay [8] it was 49; in assay [9], 860; in [10], 215; in [11], 125; in assay [12], 225.

B1: VHH 3E6 (VHH)
VHH: QVQLQESGGGLVQPGGTLSLSCAASGFNVRWYGMGWFRQAPGKEREGVACISALQETTAYADSVKGRFTLSRDNPKNTLSLQMNNLQPEDTGVYYCATTDCDDSSRMTYTSYLGQGTQVTVSS
notes: also called Monovalent VHH 3E6
Take B1: the “binding to an intact living plant” value in assay [13] was “binding leaf surface, stomata, glandular trichomes, and leaf hairs”. Also, the surface area of bound microcapsules in assay [14] is 27.7; in [17] it was 69.5. Besides, in [15], the area of bound microcapsules came to 23.5. Moreover, the “absorbance at 405 nm” value in assay [16] was found to be 4. Besides, the counts of bound microcapsules (microcapsules) in assay [18] was 861.
